# Laboratory results published in article PMC4728560 (Scientific Reports, 2016).
# “Also recorded” adds a separate entry of the source.
# B1: TCTP R21A: full-length TCTP protein bearing the mutation R21A (protein)
# chain: MIIYRDLISHDEMFSDIYKIAEIADGLCLEVEGKMVSRTEGNIDDSLIGGNASAEGPEGEGTESTVITGVDIVMNHHLQETSFTKEAYKKYIKDYMKSIKGKLEEQRPERVKPFMTGAAEQIKHILANFKNYQFFIGENMNPDGMVALLDYREDGVTPYMIFFKDGLEMEKC
# Key:
# Bcl-xL [1] = experiment: In cellulo BRET between Luciferase-fused TCTP and YFP-fused Bcl-xL; type: cell-based; settings: MCF-7 cells; donor Luciferase-fused TCTP, acceptor YFP-fused Bcl-xL
# Text: See Supplementary Information for full details.
# Twenty-four hours later, cells
# Protein expression and purification
# Bcl-xL [2] = target: T1, Bcl-xL (Homo sapiens, UniProt Q07817, DEL27-82); experiment: Heterocomplex formation with Bcl-xL (native MS, SEC-MALS, gel filtration); type: binding; settings: native MS: Bcl-xL(Δ27-81ΔCT), equimolar 100 μM, 30 °C, checked at 5 μM (for TCTP-R21A)
# T1 construct: one containing the fragment 1-26, and the other the fragment 81-209; 6His (N, cleaved yes); made in house; host or cells: Escherichia coli BL21 (DE3) pRARE2
# T1 sequence (Q07817 with tags, fused parts or gaps DEL27-82): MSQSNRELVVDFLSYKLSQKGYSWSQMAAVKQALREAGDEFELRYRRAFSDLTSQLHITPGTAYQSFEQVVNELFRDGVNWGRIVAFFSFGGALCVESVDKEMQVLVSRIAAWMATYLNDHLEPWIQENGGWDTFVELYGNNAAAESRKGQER
# Method: When not specified, proteins tested for binding experiments were mixed at 100 μM, dialyzed against 10 mM CHES pH 9, 50 mM NaCl, 1 mM DTT or TCEP, depending on the analysis, and heated overnight at 30 °C.
# For binding experiments, 100 to 200PL of protein mixture were loaded on a size exclusion chromatography (S200, GE Healthcare) column, while elution profiles were measured by UV absorption at 280 nm.
# SEC-MALS experiments were performed on a multi-angle light scattering detector (miniDAWN TREOS, Wyatt Technologies) coupled in-line with SEC and an interferometric refractometer (Optilab T-rEX, Wyatt Technologies). See Supplementary Information for full details.
# Prior to any mass spectrometry experiment, protein buffer was exchanged twice against a 50 mM ammonium acetate (NH4Ac) solution at pH 9.0 using microcentrifuge gel filtration columns (Zeba 0.5 ml, Thermo Scientific, Rockford, IL). Protein concentration was determined spectrophotometrically. […]
# Supplementary Table 1. Measured molecular weights in denaturing conditions Sample Theoretical molecular Measured molecular Associated mass (Da) mass (Da) species […]
# Gel filtration. For binding experiments, 100 to 200PL of protein mixture were loaded on a size exclusion chromatography (S200, GE Healthcare) column, while elution profiles were measured by UV absorption at 280nm. […]
# [3] = tested on: Bcl-xL inhibition of cBid/Bax; experiment: In vitro reconstitution liposome permeabilization, cBid/Bax with Bcl-xL; type: biochemical; settings: ANTS/DPX liposomes, 100 nM Bax, 20 nM cBid, pre-incubation pH 9, 45 min, 37 °C, 5 h, pH 7
# Text: (§1) This purified assay system measures direct interactions in which full-length untagged Bcl-xL inhibits permeabilization by binding full-length caspase 8 cleaved Bid (cBid) and/or full-length untagged Bax, thereby preventing Bax oligomerization in membranes. […] In these assays liposome permeabilization by activated Bax releases the entrapped fluorophore/quencher pair 8-aminonaphthalene-1,3,6-trisulfonic acid (ANTS)/p-xylene-bispyridinium (DPX), resulting in a measurable increase of fluorescence.
# (§2) (A–E) in vitro reconstitution assay on liposome permeabilization. […] The treated Bcl-xL was then added to reactions containing ANTS-DPX liposomes, 100 nM Bax and 20 nM of either cBid (A,B) or cBidmt1(C,D) at pH 7. Liposome permeabilization was quantified by fluorescence after 5h incubation at 37 °C where 100% release was defined as the fluorescence change due to lipid solubilization with 1% Triton X-100. […] Error bars, std. dev. n = 3. […] Cyto c extra-mito: in the supernatant, analysed by Western blot. […]
# (§3) Figure 10 A,B) or cBid mt1 (Supplementary Figure 10 C,D) at pH 7 to quantify the activity of Bcl-xL inhibition of liposome permeablization. […]
# (§4) then added to reactions containing ANTS-DPX liposomes, 100nM Bax and 20nM of either c Bid (A, C) or cBid mt1(B, D) at pH 7 and liposome permeabilization was quantified by fluorescence […]
# [4] = tested on: Bax mediated cytochrome c release, Bcl-xL; experiment: Cytochrome c release from purified mitochondria by tBid and Bax in the presence of Bcl-xL; type: biochemical; settings: mouse liver mitochondria; 5 nM tBid, 50 nM Bax, 300 nM Bcl-xL; 15 min, 30 °C; Western blot
# Method: as §2, with “3. To compare between the TCTP treated groups and the Control group statistically, two-way ANOVA test was performed for (A–D) and one-way ANOVA test was performed for (E). […] Colored asterisks above each data point indicate the statistical significance (*p < 0.05; **p < 0.01, no asterisks if p ≥ 0.05). A complete statistical analysis is provided in Supplementary Table 2–4.” for “3.”
# to highlight the pre-incubation), pH 9, 30 C° before being added to the mitochondria at their final concentrations. […] Cytochrome c was detected in the mitochondrial fraction (Cyto c intra-mito) or in the supernatant (Cyto c extra-mito) by Western blot analysis. […]
# Cytochrome c release assay. […] Mitochondrial pellets and the corresponding supernatant fractions were subjected to SDS-polyacrylamide gel electrophoresis and analyzed by Western blotting for cytochrome c.
# [5] = tested on: Bcl-xL inhibition of cBidmt1/Bax; experiment: In vitro reconstitution liposome permeabilization, cBidmt1/Bax with Bcl-xL; type: biochemical; settings: ANTS/DPX liposomes, 100 nM Bax, 20 nM cBidmt1, pre-incubation pH 9, 45 min, 37 °C, 5 h, pH 7
# Text: as §1, §2, §3, §4
molecule,measurement,setting,value
B1,BRET signals with Bcl-xL,Bcl-xL [1],lack of binding
same,complex formation with Bcl-xL,Bcl-xL [2],no peak; also recorded: no complex formation
same,effect on Bcl-xL inhibition of cBid/Bax-mediated liposome permeabilization,[3],no effect on Bcl-xL activity
same,potentiation of Bcl-xL (cytochrome c release),[4],do not potentiate Bcl-xL
same,effect on Bcl-xL inhibition of cBidmt1/Bax-mediated liposome permeabilization,[5],no effect on Bcl-xL activity
